# Data published in the DeepSol protein solubility set.
# Assay: soluble on expression in E. coli; label from the status in PepcDB or PDB records
row,Sequence,soluble on expression in E. coli
1,MIEAEEQQPCKTDFYSELPKVELHAHLNGSISSHTMKKLIAQKPDLKIHDQMTVIDKGKKRTLEECFQMFQTIHQLTSSPEDILMVTKDVIKEFADDGVKYLELRSTPRRENATGMTKKTYVESILEGIKQSKQENLDIDVRYLIAVDRRGGPLVAKETVKLAEEFFLSTEGTVLGLDLSGDPTVGQAKDFLEPLLEAKKAGLKLALHLSEIPNQKKETQILLDLLPDRIGHGTFLNSGEGGSLDLVDFVRQHRIPLGKAWSFRSSR,soluble
2,MSFLKCGVCTEDYSNVITNRHPKNLTCGHSICKACSSKLVSNFKILCPFCRKTTELRENENLQTNFALLEAISLFNDINESVTEPRSSGAPPNCEEHTYNLAEFVCISPNCSSRSKLMCRTCEEFGVHAGHRKGLLQVEAKKVRQNLLERQRKLQVNKKQVDDKIQALEKAALKKNDELYKEKYDEITRHYDRIRSSVAEREKTSKEVLKKSVLTSEEDNRMGQISNHVIRHLLEKKCEEVEQLVGMTDFELYRVKDKVDWNDESFSFSDVKEKPPMELKTLHVKLPEFRFEDSS,not soluble
3,MRGLMLRSFSAGYSTQPVIADLNVPLLPRGKITILLGPNGCGKSTLLRSLAGLNNADGEALLDGEDLMSLSFAERAQKVVFLPQSLPQGVHLHVLESIIVVLRASGGRDNAQGRAQILAILEQLGITHLALQYLDQLSGGQRQLVGLAQSLIRRPELLLLDEPLSALDLNYQFHVMDLVRRDTQAQNRVTIVVAHDINIALRHGDHVLMLKDGRLVASGAPETVITAERLAEVYRVRGRVERCSQGKLQVVLDGVIAV,not soluble
4,GMEYQLQQLASLTLVGIKETYENGRQAQQHIAGFWQRCYQEGVIADLQLKNNGDLAGILGLCIPELDGKMSYMIAVTGDNSADIAKYDVITLASSKYMVFEAQGAVPKAVQQKMEEVHHYIHQYQANTVKSAPFFELYQDGDTTSEKYITEIWMPVKG,soluble
5,MGHHHHHHSHMAHYLFNPFYLRLDCDLSKAYIHRIFASFYMEKEADAHTNEKRSKPMTQQYIVEPKKGLGLKLKKGQILKVVDVEGQQVADFVAYHAKDSYEHLDQGATIDAIHSIHVKVSDHLYSNPVLSRWLPLIEDTGPASMICCWPACRPDIEQALIWEAKRMSFRIRAMTICAVRLSSLAYRSPTCITHLRYCMDTVLDEEGNLSVETPLSDAGDYVRLRAEMDLIVAFSSCPRCNRDIQWRQCDIHTG,not soluble
6,GSRAQSSPAAPASLSAPEPASQARVLSSSETPARTLPFTTGLIYDSVMLKHQCSCGDNSRHPEHAGRIQSIWSRLQERGLRSQCECLRGRKASLEELQSVHSERHVLLYGTNPLSRLKLDNGKLAGLLAQRMFVMLPCGGVGVDTDTIWNELHSSNAARWAAGSVTDLAFKVASRELKNGFAVVRPPGHHADHSTAMGFCFFNSVAIACRQLQQQSKASKILIVDWDVHHGNGTQQTFYQDPSVLYISLHRHDDGNFFPGSGAVDEVGAGSGEGFNVNVAWAGGLDPPMGDPEYLAAFRIVVMPIAREFSPDLVLVSAGFDAAEGHPAPLGGYHVSAKCFGYMTQQLMNLAGGAVVLALEGGHDLTAICDASEACVAALLGNRVDPLSEEGWKQKPNLNAIRSLEAVIRVHSKYWGCMQRLAS,soluble
7,AHHHHHHGSKFEELNEKIKKVYGKVRTIDDFHWHISDNLIHGIHKKSGLRLEIRIAESKEAADKIAQKKEPGNLMVIVVPGKETFYVNNGAFVLALKFLRSTIQDISDHIVWAGFKVVERDGALEQEDIYEYLGGRLIEHIKSGMVNGKDYIFWQFYKCEHCGKYVDIENLVRHMKTHGEDVKEWSEEKYEVLELSFEDKKVYNKFGKEVPLEEFVEETQDFIKEVFES,soluble
8,MGNGMTKVLPGLYLGNFIDAKDLDQLGRNKITHIISIHESPQPLLQDITYLRIPVADTPEVPIKKHFKECINFIHCCRLNGGNCLVHCFAGISRSTTIVTAYVMTVTGLGWRDVLEAIKATRPIANPNPGFRQQLEEFGWASSQKLRRQLEERFGESPFRDEEELRALLPLCKRCRQGSATSASSAGPHSAASEGTVQRLVPRTPREAHRPLPLLARVKQTFSCLPRCLSRKGGK,soluble
